Experimental data from patent publication US20250145711A1 (Janssen / Centocor, published 2025).

B1: BC3B129 (bispecific antibody, human IgG1, kappa, L234A L235A)
chain: EIVLTQSPATLSASPGERVTLSCSASSSVSYMNWYQQKPGQAPRRWIYDSSKLASGVPARFSGSGSGRDYTLTISSLEPEDFAVYYCQQWSRNPPTFGGGTKVEIKGGSEGKSSGSGSESKSTGGSQVQLVQSGAEVKKPGSSVKVSCKASGYTFTRSTMHWVRQAPGQGLEWMGYINPSSAYTNYAQKFQGRVTLTADKSTSTAYMELSSLRSEDTAVYYCASPQVHYDYSGFPYWGQGTLVTVSSEPKSSDKTHTCPPCPAPEAAGGPSVFLFPPKPKDTLMISRTPEVTCVVVSVSHEDPEVKFNWYVDGVEVHNAKTKPREEQYNSTYRVVSVLTVLHQDWLNGKEYKCKVSNKALPAPIEKTISKAKGQPREPQVYVYPPSREEMTKNQVSLTCLVKGFYPSDIAVEWESNGQPENNYKTTPPVLDSDGSFALVSKLTVDKSRWQQGNVFSCSVMHEALHNHYTQKSLSLSPG
heavy: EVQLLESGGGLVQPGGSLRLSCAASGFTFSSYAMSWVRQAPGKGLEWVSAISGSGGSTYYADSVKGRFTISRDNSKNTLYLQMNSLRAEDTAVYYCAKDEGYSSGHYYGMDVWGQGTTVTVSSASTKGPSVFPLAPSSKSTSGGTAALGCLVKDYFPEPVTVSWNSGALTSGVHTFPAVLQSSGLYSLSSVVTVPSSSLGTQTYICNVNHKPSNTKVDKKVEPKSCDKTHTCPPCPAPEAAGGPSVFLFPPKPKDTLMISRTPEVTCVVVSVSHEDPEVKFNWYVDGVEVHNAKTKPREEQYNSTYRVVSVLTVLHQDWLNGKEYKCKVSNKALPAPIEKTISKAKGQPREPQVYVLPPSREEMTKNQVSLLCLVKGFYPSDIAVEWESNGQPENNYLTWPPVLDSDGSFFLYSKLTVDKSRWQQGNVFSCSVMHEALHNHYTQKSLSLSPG
light: EIVLTQSPGTLSLSPGERATLSCRASQSISSSFLTWYQQKPGQAPRLLIYGASSRATGIPDRFSGGGSGTDFTLTISRLEPEDFAVYYCQHYGSSPMYTFGQGTKLEIKRTVAAPSVFIFPPSDEQLKSGTASVVCLLNNFYPREAKVQWKVDNALQSGNSQESVTEQDSKDSTYSLSSTLTLSKADYEKHKVYACEVTHQGLSSPVTKSFNRGEC
notes: IgG1 BCMAxCD3; HC1: CD3B2089-N106S LH scFv-Fc; also called BC3B129.001; B2089 LH NtoS
B2: PSMB1069 (bispecific antibody, human IgG1, kappa, L234A L235A)
heavy: not shown
light: not shown
chain: QVQLVESGGGEVQPGRSLRLSCAASGFSFSGYGMHWVRQAPGKGLEWVAVMSYDGSNRFYVDSVRGRFSISRDNSKNTLYLQMNSLRPEDTAVYYCARDTVWGSHPDAFDIWGQGTVVTVSSGGSEGKSSGSGSESKSTGGSQSVLTQPPSVSVAPGQTARITCGGNNSGSKSVHWYQQKPGQAPVLVVYDDSDRPSGIPERFSGSNSGNTATLTISRVEAGDEADYYCQVWDSSSDHGVFGGGTKLTVLEPKSSDKTHTCPPCPAPEAAGGPSVFLFPPKPKDTLMISRTPEVTCVVVSVSHEDPEVKFNWYVDGVEVHNAKTKPREEQYNSTYRVVSVLTVLHQDWLNGKEYKCKVSNKALPAPIEKTISKAKGQPREPQVYVLPPSREEMTKNQVSLLCLVKGFYPSDIAVEWESNGQPENNYLTWPPVLDSDGSFFLYSKLTVDKSRWQQGNVFSCSVMHEALHNHYTQKSLSLSPG
notes: HC1 (ZWA): B23B62-Fab; LC2 is NA
B3: PSMB1047 (bispecific antibody, human IgG1, kappa, L234A L235A)
heavy: not shown
light: not shown
chain: QSVLTQPPSVSVAPGQTARITCGGNNSGSKSVHWYQQKPGQAPVLVVYDDSDRPSGIPERFSGSNSGNTATLTISRVEAGDEADYYCQVWDSSSDHGVFGGGTKLTVLGGSEGKSSGSGSESKSTGGSQVQLVESGGGEVQPGRSLRLSCAASGFSFSGYGMHWVRQAPGKGLEWVAVMSYDGSNRFYVDSVRGRFSISRDNSKNTLYLQMNSLRPEDTAVYYCARDTVWGSHPDAFDIWGQGTVVTVSSEPKSSDKTHTCPPCPAPEAAGGPSVFLFPPKPKDTLMISRTPEVTCVVVSVSHEDPEVKFNWYVDGVEVHNAKTKPREEQYNSTYRVVSVLTVLHQDWLNGKEYKCKVSNKALPAPIEKTISKAKGQPREPQVYVLPPSREEMTKNQVSLLCLVKGFYPSDIAVEWESNGQPENNYLTWPPVLDSDGSFFLYSKLTVDKSRWQQGNVFSCSVMHEALHNHYTQKSLSLSPG
notes: as for B2
B4: PSMB1052 (bispecific antibody)
heavy: not shown
light: not shown
chain: SYELTQPPSVSVAPGQTARITCGGNNIGSKSVHWYQQKPGQAPVLVVYDDSDRPSGIPERFSGSNSGNTATLTISRVEAGDEADYYCQVWDSSTDHVVFGGGTKLTVLGGSEGKSSGSGSESKSTGGSEVQLVESGGGVVQPGRSLRLSCAASGFTFSSYGMNWVRQAPGKGLEWVAVTSYDGSNKYYADSVKGRFTISRDISKNTLYLQMSSLRAEDTAVYYCARDPYSSSWNGAFDIWGPGTMVTVSSEPKSSDKTHTCPPCPAPEAAGGPSVFLFPPKPKDTLMISRTPEVTCVVVSVSHEDPEVKFNWYVDGVEVHNAKTKPREEQYNSTYRVVSVLTVLHQDWLNGKEYKCKVSNKALPAPIEKTISKAKGQPREPQVYVLPPSREEMTKNQVSLLCLVKGFYPSDIAVEWESNGQPENNYLTWPPVLDSDGSFFLYSKLTVDKSRWQQGNVFSCSVMHEALHNHYTQKSLSLSPG
notes: as for B2
B5: PSMB1060 (bispecific antibody, human IgG1, kappa, L234A L235A)
heavy: not shown
light: not shown
chain: EIVLTQSPGTLSVSPGERATLSCRASQSVRSNLAWYQQKPGQAPRLLIYGASTRATGIPARFSGSGSGTEFTLTISSLQSEDFAVYYCHQYNDWPPYTFGQGTKLEIKGGSEGKSSGSGSESKSTGGSQVQLQESGGGVVQPGRSLRLSCAASGFTFSTYGMHWVRQAPGKGLEWVAFISYDGSNKYYADSVKGRFTISRDNSKHTLYLQMNSLRAEDTAVYYCAGRDNLRFLEWFMDVWGQGTTVTVSSEPKSSDKTHTCPPCPAPEAAGGPSVFLFPPKPKDTLMISRTPEVTCVVVSVSHEDPEVKFNWYVDGVEVHNAKTKPREEQYNSTYRVVSVLTVLHQDWLNGKEYKCKVSNKALPAPIEKTISKAKGQPREPQVYVLPPSREEMTKNQVSLLCLVKGFYPSDIAVEWESNGQPENNYLTWPPVLDSDGSFFLYSKLTVDKSRWQQGNVFSCSVMHEALHNHYTQKSLSLSPG
notes: as for B2
B6: PSMB1075 (bispecific antibody, human IgG1, kappa, L234A L235A)
heavy: not shown
light: not shown
chain: EVQLVESGGGVVQPGRSLRLSCAASGFSFSGYGMHWVRQAPGKGLEWVAVISYDGSNKYYADSVKGRFTISRDNSKNTLYLQMNSLRVEDTAVYYCARDRIWGSRGYYYGMDVWGQGTTVTVSSGGSEGKSSGSGSESKSTGGSQSALTQPASVSGSPGQSITISCTGASSDVGGYNYVSWYQQHPGKAPKLMIYEVSNRPSGVSNRFSGSKSGNTASLTISGLQAEDEADYYCSSYTITSTLVFGGGTKLTVLEPKSSDKTHTCPPCPAPEAAGGPSVFLFPPKPKDTLMISRTPEVTCVVVSVSHEDPEVKFNWYVDGVEVHNAKTKPREEQYNSTYRVVSVLTVLHQDWLNGKEYKCKVSNKALPAPIEKTISKAKGQPREPQVYVLPPSREEMTKNQVSLLCLVKGFYPSDIAVEWESNGQPENNYLTWPPVLDSDGSFFLYSKLTVDKSRWQQGNVFSCSVMHEALHNHYTQKSLSLSPG
notes: as for B2
B7: GCDB131 (bispecific antibody, human IgG1, kappa, L234A L235A)
heavy: QVQLLQSAAEVKKPGESLKISCKGSGYTFTRSTMHWVRQTPGKGLEWMGYINPSSAYTNYNQKFKDQVTISADKSISTAYLQWSSLKASDTAMYYCARPQVHYDYNGFPYWGQGTLVTVSSASTKGPSVFPLAPSSKSTSGGTAALGCLVKDYFPEPVTVSWNSGALTSGVHTFPAVLQSSGLYSLSSVVTVPSSSLGTQTYICNVNHKPSNTKVDKKVEPKSCDKTHTCPPCPAPEAAGGPSVFLFPPKPKDTLMISRTPEVTCVVVSVSHEDPEVKFNWYVDGVEVHNAKTKPREEQYNSTYRVVSVLTVLHQDWLNGKEYKCKVSNKALPAPIEKTISKAKGQPREPQVYVYPPSREEMTKNQVSLTCLVKGFYPSDIAVEWESNGQPENNYKTTPPVLDSDGSFALVSKLTVDKSRWQQGNVFSCSVMHEALHNHYTQKSLSLSPG
light: EIVLTQSPSAMSASVGDRVTITCSASSSVSYMNWYQQKPGKVPKRLIYDSSKLASGVPSRFSGSGSGTEYTLTISSLQPEDFATYYCQQWSRNPPTFGQGTMLEIKRTVAAPSVFIFPPSDEQLKSGTASVVCLLNNFYPREAKVQWKVDNALQSGNSQESVTEQDSKDSTYSLSSTLTLSKADYEKHKVYACEVTHQGLSSPVTKSFNRGEC
chain: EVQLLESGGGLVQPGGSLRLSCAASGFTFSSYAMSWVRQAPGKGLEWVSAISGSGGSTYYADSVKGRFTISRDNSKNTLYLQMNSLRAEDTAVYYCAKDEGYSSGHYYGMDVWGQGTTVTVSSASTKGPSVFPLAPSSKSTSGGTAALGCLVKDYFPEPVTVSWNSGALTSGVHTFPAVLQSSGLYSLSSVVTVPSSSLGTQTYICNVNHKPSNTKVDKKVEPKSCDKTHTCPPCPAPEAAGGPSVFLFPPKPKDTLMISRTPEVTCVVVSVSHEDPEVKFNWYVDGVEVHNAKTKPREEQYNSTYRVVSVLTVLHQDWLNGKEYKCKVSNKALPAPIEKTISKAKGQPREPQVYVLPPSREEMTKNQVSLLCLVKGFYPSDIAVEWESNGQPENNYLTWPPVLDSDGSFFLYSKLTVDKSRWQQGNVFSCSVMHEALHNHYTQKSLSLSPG

Molecular target: T1, Human CD3 epsilon (CD3ε), on primary human pan T cells (human, UniProt P07766 23-207)
T1 sequence (P07766 23-207 limits assumed): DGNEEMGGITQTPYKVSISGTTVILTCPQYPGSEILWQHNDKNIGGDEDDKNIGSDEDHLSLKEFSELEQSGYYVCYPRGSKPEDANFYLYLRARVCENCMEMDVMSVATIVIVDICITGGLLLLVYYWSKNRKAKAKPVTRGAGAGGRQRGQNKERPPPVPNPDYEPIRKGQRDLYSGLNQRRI
Assay: cell-based or functional assay

| Binder | H929 Killing EC50 |
| --- | --- |
| B1 | 10 nM |

Molecular target: T2, recombinant human PSMA (human, UniProt Q04609 44-750)
T2 construct: also called hu PSMA; prostate-specific membrane antigen
T2 sequence (Q04609 44-750 limits assumed): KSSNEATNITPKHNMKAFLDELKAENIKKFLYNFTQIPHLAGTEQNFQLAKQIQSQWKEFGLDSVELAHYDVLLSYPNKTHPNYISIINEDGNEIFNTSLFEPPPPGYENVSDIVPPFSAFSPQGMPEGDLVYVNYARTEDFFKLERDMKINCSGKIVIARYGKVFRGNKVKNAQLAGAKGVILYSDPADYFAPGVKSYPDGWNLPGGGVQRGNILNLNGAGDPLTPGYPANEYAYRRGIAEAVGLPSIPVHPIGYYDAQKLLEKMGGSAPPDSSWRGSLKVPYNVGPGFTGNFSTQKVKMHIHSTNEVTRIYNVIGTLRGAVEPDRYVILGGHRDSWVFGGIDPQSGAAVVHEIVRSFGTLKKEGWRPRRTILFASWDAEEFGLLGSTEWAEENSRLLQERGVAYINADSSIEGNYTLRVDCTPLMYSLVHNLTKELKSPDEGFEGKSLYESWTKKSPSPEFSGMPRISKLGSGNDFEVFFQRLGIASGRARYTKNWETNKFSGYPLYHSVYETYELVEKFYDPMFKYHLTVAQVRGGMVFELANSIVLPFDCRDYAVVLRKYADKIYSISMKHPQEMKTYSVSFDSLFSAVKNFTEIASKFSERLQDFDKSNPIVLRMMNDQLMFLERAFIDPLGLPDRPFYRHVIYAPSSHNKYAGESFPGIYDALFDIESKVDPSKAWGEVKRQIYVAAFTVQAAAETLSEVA
Assay: SPR (Biacore 8K), antibody captured on anti-Fc, PSMA in solution
Protocol: The antibodies were captured on a goat anti-Fc antibody-modified C1 chip and titrated with 3-fold serial dilutions of PSMA antigen spanning concentrations of 1 nM to 100 nM human PSMA. The association and dissociation were monitored for 3 and 30 minutes, respectively, using a flow rate of 50 μL/min. Raw binding data was referenced by subtracting the analyte binding signals from blanks and analyzed using a 1:1 Langmuir binding model by the Biacore Insight evaluation software to obtain the kinetics which were used to calculate the binding affinity. The anti-PSMA were captured using an anti-human Fc antibody and the antigens were injected in solution.

| Binder | Kd | koff | kon |
| --- | --- | --- | --- |
| B2 | 1.42 nM | 0.000197 s⁻¹ | 139000 M⁻¹ s⁻¹ |
| B3 | 2.52 nM | 0.00175 s⁻¹ | 694000 M⁻¹ s⁻¹ |
| B4 | 1.61 nM | 0.000315 s⁻¹ | 196000 M⁻¹ s⁻¹ |
| B5 | 1.02 nM | 0.000119 s⁻¹ | 117000 M⁻¹ s⁻¹ |
| B6 | 0.936 nM | 0.000492 s⁻¹ | 526000 M⁻¹ s⁻¹ |

Molecular target: T1, Human CD3 epsilon (CD3ε), on primary …
Assay: cell-based or functional assay
Remark: another data set of the same source

| Binder | EC50, Cytotoxicity |
| --- | --- |
| B7 | 0.0334 nM |

Molecular target: T3, human PSMA on prostate cancer cell lines (22RV1, C4-2B) (human, UniProt Q04609 1-750)
T3 construct: also called PSMA-expressing cell lines
T3 sequence (Q04609 whole entry): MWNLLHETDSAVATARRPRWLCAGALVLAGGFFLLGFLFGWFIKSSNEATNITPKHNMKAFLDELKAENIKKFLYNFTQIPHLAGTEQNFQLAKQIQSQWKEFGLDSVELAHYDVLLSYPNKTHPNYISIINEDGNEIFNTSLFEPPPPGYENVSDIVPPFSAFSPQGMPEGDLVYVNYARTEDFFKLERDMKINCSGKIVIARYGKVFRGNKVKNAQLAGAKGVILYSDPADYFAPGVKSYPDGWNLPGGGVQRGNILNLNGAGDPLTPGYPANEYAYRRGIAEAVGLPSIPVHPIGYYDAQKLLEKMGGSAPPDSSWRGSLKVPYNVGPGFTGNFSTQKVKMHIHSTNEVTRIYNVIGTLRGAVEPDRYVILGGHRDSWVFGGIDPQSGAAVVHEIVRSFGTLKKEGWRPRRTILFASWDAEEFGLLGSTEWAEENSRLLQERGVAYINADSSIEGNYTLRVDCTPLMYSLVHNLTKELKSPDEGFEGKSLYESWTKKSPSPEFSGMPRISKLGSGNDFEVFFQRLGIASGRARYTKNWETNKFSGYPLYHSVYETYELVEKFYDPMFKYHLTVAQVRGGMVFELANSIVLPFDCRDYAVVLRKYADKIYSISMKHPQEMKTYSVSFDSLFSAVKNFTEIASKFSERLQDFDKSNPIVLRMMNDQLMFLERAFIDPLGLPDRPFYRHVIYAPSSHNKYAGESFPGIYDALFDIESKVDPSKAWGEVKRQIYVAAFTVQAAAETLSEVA
Assay: flow cytometry on C4-2B cells, four-parameter fit
Protocol: Molecule concentrations ranged from 500-0 nM over 12-points at 3-fold dilution. […] Values reported in the Table 69 were generated by fitting the data to a four-parameter function for ligand binding generating values for y-min, y-max, EC50, and Hill. EC90 were calculated using the equation EC90=[…]\hat{ }(1/Hill)*EC50.

| Binder | EC50 | EC90 | Y-max | Y-min |
| --- | --- | --- | --- | --- |
| B2 | 44 nM | 254 nM | 3.3e+06 | 87000 |
| B3 | 22 nM | 71 nM | 1.6e+06 | 79000 |
| B4 | 13 nM | 100 nM | 1.5e+06 | 68000 |
| B5 | 11 nM | 59 nM | 1.6e+06 | 86000 |
| B6 | 30 nM | 156 nM | 1.3e+06 | 66000 |

Molecular target: T1, Human CD3 epsilon (CD3ε), on primary …
Assay: flow cytometry on human T cells, anti-human IgG Fc A647 detection
Protocol: The bsAbs were assayed for their abilities bind T cells and to induce T-cell mediated cytotoxicity against H929 cells (ATCC@CRL-9068™). […] Stain buffer with no antibody was added to bottom 4 wells and assign as background control (secondary antibody alone). Parental Cris7b, CD3B695 (bivalent mAb controls) and CD3B375 (bsAb which was monovalent for Cris-7b) were added also with full dose-response curves.
Frozen T-cells were thawed in a 37° C. water bath and transferred gently into conical tube containing warm 5 mL media (RPMI+10% FBS)/1 vial of 1×10⁶ cells. Cells were mixed and centrifuged for 5 minutes at 400×g followed by resuspension in flow staining buffer, and counted and viability checked. Cells were then plated in 50 uL/50,000 cells/well into assay plates. Assay positive control mAb was added in the first column in quadruplicates at 2× at 20 nM in the bottom 4 wells. Stain buffer with no mAb was added to the top 4 wells and assigned as background controls (secondary antibody alone). Serially diluted antibody samples were added at 50 uL/well using Intergra Viaflo according to the attached plate maps and incubated for 1 hr at 37° C. After one hour incubation, 150 uL staining buffer were added to all wells, and cells were spun at 500×g for 5 minutes to pellet cells. Cells were then washed prior to addition of Alexa Fluor 647 (A647) conjugated anti human IgG Fc specific secondary detection antibody at 2 ug/mL in staining buffer. Secondary detection antibody was added at 50 uL/well to the washed cells. Plates were covered with foil and incubated for 30 minutes on ice or in the fridge. 150 uL staining buffer were added to all wells, and cells were spun at 500×g for 5 min to pellet cells. Cells were resuspended in 20 uL running buffer containing 1:1000 dilution of SYTOX™ green dead cell stain and run plates on iQue® Screener flow cytometer (Essen BioScience, Inc.). Briefly, cells were gated on FCS vs. SCS dot plot to eliminate debris. Singlets were gated on SCS-A vs SCS-H dot plot and from singlet population, live cells gated choosing BL1 channel for low/negative with SYTOX™ green viability stain (Thermo Fisher).

| Binder | EC50 |
| --- | --- |
| B1 | 300 nM |
